{"source": "paper doi:10.1101/2023.06.02.543457", "about": "(bioRxiv, 2023)", "molecular_target": "the molecule itself", "test": "cryo-EM structure", "data": [{"protein": "Rsph16 (natural protein, mouse, UniProt Q80Y75 1-316, looked up) MGLDYYAVLQVTRNSEDAQIKKAYRKLALKNHPLKSSEPGAPEIFKQIAEAYDVLSDPVKRGIYDKFGEEGLKGGIPLEFGSQTPWTTGYVFHGNPDKVFHEFFGGDNPFSEFFDAEGNDIDLNFGGLWGRGVQKQDPPIERDLYLSLEDLFFGCTKKIKISRRVLNEDRYSSTIKDKILTIDVRPGWRQGTRITFEKEGDQGPNIIPADIIFIVKEKLHPRFRREHDNLFFVYPIPLGKALTCCTVEVKTLDDRLLNIPINDIVHPKYFKIVPGEGMPLPENPSKKGDLFIFFDIQFPTRLTPQKKQMLRQALLT", "values": [{"measurement": "stoichiometry N", "result": 2}]}]}
